US20230071283A1, “COMPOSITIONS AND METHODS FOR SELECTIVE PROTEIN EXPRESSION” (Novartis AG, priority 2017, published 2023)

Key:
[1] = tested on: NALM6, a CD19+ target cell line; experiment: Cytokine secretion in co-culture with target cells; conditions: presence or absence of bazedoxifene; 20 hours; versus parental CAR19
NALM6 (CD19+) = experiment: Killing assay with luciferized target cells (remaining luciferase activity); conditions: presence or absence of bazedoxifene; 20 hours; versus parental CAR19
primary human T cells = experiment: FurON CAR19 surface expression in primary human T cells (FACS, protein L); format: cell-based; conditions: cells prepared for the in vivo study; IL2 and 1 uM bazedoxifene; day 10
Method: Bazedoxifene and raloxifene were resuspended in DMSO. In all instances, where concentrations not indicated, compounds were added at 1 uM for 24 hours prior to analysis by flow cytometry.
. […] Cell number, size, and viability were also assessed.
Untransduced T cells (UTDs) and the parental CAR19 were used as controls. […] .
CART cells were generated by starting with blood from healthy apheresed donors whose naïve T cells were obtained by negative selection for T cells, CD4+ and CD8+ lymphocytes. These cells were activated by the addition of CD3/CD28 beads (Dynabeads® Human T-Expander CD3/CD28, Thermo Fisher Scientific) at a ratio of 1:3 (T cell to bead) in T cell medium (RPMI1640, 10% heat-inactivated fetal calf serum (FCS), 2 mM L-glutamine, lx Penicillin/Streptomycin, 100 μM non-essential amino acids, 1 mM Sodium Pyruvate, 10 mM Hepes, and 55 μM 2-mercaptoethanol) at 37° C., 5% CO2. T cells were cultured at 4×10^6 T cells (UTDs) or 5×10^6 (CART19 and FurON CART19) in 1 mL medium per well of a 24-well plate. […] T cells began to divide in a logarithmic growth pattern, which is monitored by measuring the cell counts per mL, and T cells are diluted in fresh medium every two days. […] On day 10 the cells are collected and the percentage of cells transduced (expressing the CD19-specific CAR on the cell surface) was determined by flow cytometry analysis on a FACS Fortessa (BD). […]

CD19+ NALM6 cells = experiment: Proliferation assay in co-culture with target cells (FACS, counting beads); conditions: presence or absence of bazedoxifene; 4 days; versus parental CAR19

B1: construct #130: furin degron with fewer mutations (ERmut2) fused to anti-CD19 scFV CAR; same furin cleavage sequence as #106 (protein)
chain: RSSLALSLTADQMVSALLDAEPPILYSEYDPTRPFSEASMMGLLTNLADRELVHMINWAKRVPGFVDLTLHDQVHLLECAWMEILMIGLVWRSMEHPGKLLFAPNLLLDRNQGKCVEGGVEIFDMLLATSSRFRMMNLQGEEFVCLKSIILLNSGVYTFLSSTLKSLEEKDHIHRVLDKITDTLIHLMAKAGLTLQQQHQRLAQLLLILSHIRHMSNKRMEHLYSMKCKNVVPLSDLLLEMLDAHRLGTGAEDPRPSRKRRSLGDVGEIVMTQSPATLSLSPGERATLSCRASQDISKYLNWYQQKPGQAPRLLIYHTSRLHSGIPARFSGSGSGTDYTLTISSLQPEDFAVYFCQQGNTLPYTFGQGTKLEIKGGGGSGGGGSGGGGSQVQLQESGPGLVKPSETLSLTCTVSGVSLPDYGVSWIRQPPGKGLEWIGVIWGSETTYYSSSLKSRVTISKDNSKNQVSLKLSSVTAADTAVYYCAKHYYYGGSYAMDYWGQGTLVTVSSTTTPAPRPPTPAPTIASQPLSLRPEACRPAAGGAVHTRGLDFACDIYIWAPLAGTCGVLLLSLVITLYCKRGRKKLLYIFKQPFMRPVQTTQEEDGCSCRFPEEEEGGCELRVKFSRSADAPAYKQGQNQLYNELNLGRREEYDVLDKRRGRDPEMGGKPRRKNPQEGLYNELQKDKMAEAYSEIGMKGERRRGKGHDGLYQGLSTATKDTYDALHMQALPPR
In the case of B1, the “levels of IFNγ” value [1] is reported as “secrete cytokines in the presence of CD19+ tumor cells, in a manner that is stabilizing compound-dependent and is noninferior to the parental CAR construct”, the Percent tumor lysis (NALM6 (CD19+)) is reported as “kill CD19+ tumor cells, in a stabilizing compound- and target-dependent manner and is noninferior to the parental CAR construct” and the “surface expression (mean fluorescence intensity, MFI)” value (primary human T cells) is reported as “lower than the observed for CART19”. The Proliferation (CD19+ NALM6 cells) was “proliferate in the presence of CD19+ tumor cells, in a manner that is stabilizing compound-dependent and is noninferior to the parental CAR construct”.
